The values below come from publication PMC10052277, “Detection of SARS-CoV-2 receptor binding domain using fluorescence probe and DNA flowers enabled by rolling circle amplification”.

Like-named read-outs stand apart in the source and are kept apart here.

For data set [1], the target named is T1, SARS-CoV-2 Spike RBD (SARS-CoV-2, UniProt P0DTC2 319-541). Particulars: protein: commercial; tags: C-terminal 6xHis; label: 5'-FAM.
In data set [2] the target is T1, SARS-CoV-2 Spike RBD.

B1: FAM-Aptamer (ssDNA)
DNA: CAGCACCGACCTTGTGCTTTGGGAGTGCTGGTCCAAGGGCGTTAATGGACA
In the case of B1, the binding result with SARS-CoV-2 Spike RBD [1] is “binds”.

B2: Aptamer (ssDNA)
DNA: B1 DNA
Turning to B2, the binding result with SARS-CoV-2 Spike RBD [2] is “binds”.
